Source: the domain aggregation screens of Martell et al. (2025)

Experiment: soluble fraction after stress (log2 fold change); higher = more stays soluble; pooled small domains, quantitative proteomics
Settings: stress: pH 4
Outline: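 How much of each domain stays soluble after acid stress, expressed as a fold change, is used to gauge aggregation propensity. Pooled custom libraries of small domains underwent pH 4 stress before high-throughput quantitative proteomics. A higher log2 value means more of the domain stayed soluble.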

| Sequence | soluble fraction (log2) |
| --- | --- |
| HMRPTAWEQVSRHIDQHGSIGNTEVRKAMETENVLAASKQIKKWLEQGLLIILNPTAGTRARRYSKPNM | -0.0247 |
| HMRPTDVLNYDESMRILNFSNNRVGFKHLMDAKGIEQVIFKNRKIGYRKSEILALKSELEAEQK | -0.0346 |
| HMRPYAYGTGRRKSSTARVHLIPNGSGSITINGRTLDEYFGLETLKLIVRQPLAATETAEKFDVEATVV | -0.509 |
| HMRQDEKTLLYWIGAQVKREGKLIKTSTAQYLVEKTGTDMENLEKELEKLFAYTLDEKEITPAAIDEI | -1.21 |
| HMRQIRELFRLKFGSLLPTSDRQIAAQLGVARSTVAEYLERARAAGLSWPLPLDLSDADLEERLFA | ≥ 0.43 |
| HMRQMSEELQSAKEALEDRRTQEKAVLLLMEHRNISNDEAHRLLRKLAMDQGKRLPEVARALVSMAGVL | -0.203 |
| HMRQSKMREAILAAVSAQKLEISDLHVWRIGEQRYAAIIGLATTQAESVSALRDSLAQMDKLVHLTIDQ | -1.16 |
| HMRQTGWVTADSLNVRARPSLQAERVEKVTYGQQVQIMFKQGQWYQIATENGKIGWVSSEYIAAVSP | 0.0725 |
| HMRRELDSEHKRQEILFAAKRLLLAEGYDATSMSRLAKEAGVAPNTLYWYFKDKDELLIAILDELVAE | -1.09 |
| HMRRGKLGMASRLEQIPGIGPKKRKALLKAFGNSIDAIKSAPVEDLMKVKGINLVLAESIKEL | 0.374 |
| HMRRMTEEQSKLFQGLVSIVQTTLVADMEKGAVTPLLIAEKVDFVADNLYPGKDIDRKEAVAELIRRFSLW | -0.875 |
| HMRRSKQERQQAIKTLISNEQIQRQEDLVRKLNEAGWEVTQATISRDITEMQLVKVPLPTGGFAYAVM | -0.31 |
| HMRRSKVMLESILDEIPQMGQARRAALLEQFGSVAALRKASLAEIAMTPGIGEKIAVIIFEYLQKSSH | -0.067 |
| HMRRTEKEIEQDVMRAIATIISEKGISSVTIKEVSNLSKTDVIVLERRFKNDEGLIKAYTSQ | 0.0814 |
| HMRSFADEGTVEEWIKQAIRENEAAVADYRKGKETAVKFLMGQVMRLSKGEANPADLEDKIKAKLD | 0.025 |
| HMRSFGTVAQARGRWKAFYVGPDKRRHTPGVTFSNPIRAQGWLAQELTLIELGQWTPPAQRREKAEVAS | -0.43 |
| HMRSIVETLTDRELEIFQLIGNGFSTGEIARRLNLSPHTIETHRKNIKDKLGLSSGSELNKQAIQWVLSS | -1.15 |
| HMRSKTSYAVWTPIQIDAGSQMQALQSKGFNTVLMEGGISVGIRSDKAQAQALLNRLQGAGFTGQLREVN | 0.259 |
| HMRSLATFEEEKIALRFWNYLQSEGIKSTLEEEGPRDWVIWVIDEEKIPSATQSLEKFNLNPDDPAFSN | -0.137 |
| HMRSLVDRSVQAVTDHIRENALRVGDSLPGEAYFATSLGVSRAVMREAFGALAALRVIDVGNGRKPRVGAI | -0.438 |
| HMRSMEKRLTAKVKRVQEGVQAKSQAGEQPFEVVKLMQRFPKLMQFGKHAEAETVLDKALELLGEE | -0.373 |
| HMRSQLALVVRTGESQRLDNFLVNNLAWKSRNRLQGLIREGLVTVNGEKTKASRRVHLDDLVEIHL | -0.0501 |
| HMRSTIYEFTVPPGQLESIRLDVYITSFVENATRSKVQEAIKQGYVWVNGKHEKASYTMLPGDKIYIELPI | -0.497 |
| HMRSVEVAAEPGMVLEDRQTGFVGAVVAVEKSGGTHLVVLEDRHGLRRGFPLGPGFWLEGRPVVLAPPP | -0.141 |
| HMRTANREKRIEASVKMMKAGYPVGYIIARVFMYEGWEEDYRQLLIYLSEKIPKDVSNPITFEVIS | -0.317 |
| HMRTEGNLGAKVRVLRRSQGMTQAELARRLGISPSYLNLIEHNRRSFTADLLVKLAKILPVNLKT | 0.04 |

| Sequence | soluble fraction (log2) |
| --- | --- |
| HMRTITYSITPAHAGMSVERYLKQQHGYSTRTLVKLKHYPQGLQLNGQHARTVDLLQAGDTLAVTFLD | 0.145 |
| HMRTLSAGVAGRLRADILNGLLEPGRRLGMAELTERYGAGMSPVREALSRLVGEGLVQSEGQRGFRVA | 0.199 |
| HMRTMFGQRLRLARKRAGLSMQALADRVTPSVSAQAISKYEADQMMPSSSVLVGLGKALGVSLDFLVGGQ | -0.238 |
| HMRTNVDISPKILEWVLSQVRNRTTNDVIETIQIWIKGEKPPTFNQVEKISKATGVPLGYFFLKTPPVED | -0.684 |
| HMRTPLTGREEQVATLIGRGMTNSEIAESLSVDESTVKTHIGSILRKVHLRDRLQVALWFHGLPIE | -0.354 |
| HMRTTYKTRLETLLAGPMSAGDRRFASSLLDFYNRKNRLTPGRARFVAQLEDRYSAEALAARQG | -0.00949 |
| HMRTVEQFQIRKIYAISNALGISDSRADEDELHVLVSGLTGKDSIKELTYREASVVIERLEELQ | -0.62 |
| HMRVDDITDTILNVLKEQGGFISVTDKSSPETINKLFGVSKKTYKKAIGAIYRKKLIIIEDDGIRLNS | -0.219 |
| HMRVDRSALDSIPGVGPGRKRTLLHHFGSARAVEASGLADLESIRGISKALARKIYDFFHPE | 0.161 |
| HMRVELVVVPELRQQLLPEARELANSAGLQLRVRGQSPADETRTIVVTQSPAAGTRVAARSIVLVE | 0.338 |
| HMRVPTVIGMDEGTAKATLANASLKSNIVYESDETKENGKVLSQGIEQNKEVKAGTTVEIKVNKIE | 0.22 |
| HMRVTEVSYDKFLDMLSGGQVTVVELQENERELYFKAADENGAERIYSTGVFPDADLQKRLSESGVTF | -1.19 |
| HMRYLHTMIRVSDLEESLNFFKLLDIHEVSRKENEQARFTLVFLSATGDEKLVENAKSPLIELTFN | -0.471 |
| HMRYLMPDLVNRRYEPVRSLLEARGIRFGNVIFEPYEGLPPGIVLRQDPPAGHPLPRRRTVSLVVSGPGGR | 0.109 |
| HMRYQIAEARKLRDITQAELAEKMGTTQQTIQRYETNQVNIRMDKMIEMSEILNVSLAYLLGMSSSPEL | 0.122 |
| HMRYVVQVATFSSKNNAIRAADDLAGFVVVSNGYYRVRTGPYADRGEANAALAKARKAGYTDAFVDTS | 0.0704 |
| HMSAAYVYVTGTRVNQRDGPSTFDRVMGVLVEGTRVQLLRDQGQWAQIRSDLGTGWLSSGFLSRNG | 0.0158 |
| HMSADKAEAAEASLKSFNLRLQAAAMEAGKTFAPVTADQYAEYKAAWGTYIRKGIEGLSESEKKTINVG | -0.167 |
| HMSAETREELVGREGVSLTDLRPSGFALFGQEKIDVVSESEFIEEGTSVRIVSVEGSRHIVRAKR | -1.24 |
| HMSAISSARKEKIIEYLTDHGSARSSEIAEYVDLRPSRVRDYLGELVREDIVVAEGANRNRTYRLK | 0.409 |
| HMSAPGYRAVYPGMLESERQTAYELLSSSGFDVKINTSSGELEVTTDRYHEARMVMASQNIPK | -1.18 |
| HMSAPVFRITPAGVVVNGLKRSDILTLTRIDGAMNTLPHNAGEVLVSTEGLAKGVYVITAGGKSLKFLV | 0.00157 |
| HMSAQPMEYSRFYSDVTQGRVAEVEIEGREINGRLSTGERFKTFSPETDNKALIGHLLDNGVVIEGKPP | 0.0726 |
| HMSASEKLFEARKNLNIVNVLGKNPVDRYDIVKILKHGDHYHIYDSKGNEGITYTNPKSLYPEAEFGEYQG | -0.228 |
| HMSASTGTVSYKSGATTVWNSPSWHQVKRYVTFGDTVQLLGKTVDQNGATWYKVGDNQWIPELYLNVAG | -0.486 |
| HMSATEPVHFDPNKSPEDMTVEELQAGILAKMANNGPVSDQMKKTVNENIWHDSLVNWLKSF | -0.0828 |

| Sequence | soluble fraction (log2) |
| --- | --- |
| HMSATPQRMSIINELDSARKNLSAYDLRDSLKDKGHSFNISTIYRVLSFWIDVGVVHKMDSSNTYL | -0.315 |
| HMSATVLVHVLGEVRKPGVVSLPEGSRVQDAITAAGGLTSRAKPGDLNLAARVSDGAQLVIGRSGSQVRTT | 0.103 |
| HMSAVVAPLPGLIQNILVKVGDTVHAGQHVLTMEAMKMENEIQTNRDGIIKDIKVRIGDSVNEGDTLIIL | -0.311 |
| HMSDAGAIEPTIKEILASNPKAVEEYLAGNIKNINALIGQSMKALHGKADPQTVRNLLAKLLDEM | -0.487 |
| HMSDAIQLEQKIGLEAIEWYLALSEQTDDKLLYQQWQSWLAADPQHQLAWSRIEQVNHGLNTL | -0.9 |
| HMSDAVQLGLRLRAARERRGLSQQAVADALGLPRTAVTNMESGNRAVSTLELTKLAALYGQSTAFFLSP | 0.291 |
| HMSDDVELLGRLSDREVSVLQYLSQGYSNKQISEQMFISNKTVSTYKARLLLKLNAGSLVDLIEFAKRNTL | -0.961 |
| HMSDEINYVIQINGKNRAEAEFGANLDKESIENLALEHERIKELLNGLTVRKIIVVPKKLVNIVA | 0.178 |
| HMSDESALLELVKQIIADNPKAVEEIRAGKEKAMGFLIGQAMKASRGSANPQIISRLVREQLG | 0.0495 |
| HMSDFDPTLILDLIKGSGEALTKREIARALGIKGGDKRIELKSHLKSMEAEGVIVKQAGGAYSVP | -0.00302 |
| HMSDFSNLNLLELNSSELDLLLRRASSQGLTQMDLLKMARSQGLSEADLIKVKGKIDTSESIKR | -0.0416 |
| HMSDFSSNLRRLRKRAGLSQDALAEKLSVARQTVSSWERGNSYPDLDMLVRISDALATDPNELLYPN | 0.0655 |
| HMSDGDFLQKIAEEILAQFPDKVKEYQKGKKGLIGFFMGELMKRSKGKADPKVATRILEEILSEKNGSS | -0.609 |
| HMSDGTVYGSDGVIKVNLPQSGMLRIYATDGTTLVNRWQAAGIDTISMPRGLYIVRFDNQVWKVVV | 0.00982 |
| HMSDHSSLAGKEGVAVTPLRPAGTAEIDGKRMDVVTMGDYIKAGDHIKVVKVEGNRIIVAKN | -0.0102 |
| HMSDHYEVLGVDRNATDDQIKKAYRRLARELHPDVNDAPESQEKFKLVTHAYEVLSDPDERRKYDMG | 0.056 |
| HMSDIYSLFERELGRTLSSYEYEIIGKWIEKGVSEDTIKRALKEAILNGVTNFKYIDKIIYDWSKN | -1.05 |
| HMSDLFKYSPYKTLTEEQYKITYQIIERLKTDLSNGIPRISIIDGGAGTGKSILGIFLLKLLVDAQN | 0.321 |
| HMSDNLSASERKALSHMEGMESVRSSEVADLLGMSQRGAQKLLNRLVDKGLASSFGANRNRRYSVE | 0.111 |
| HMSDNLTIVRAVYSGLSQRQAAATYHVSRNTVSLLLRHARNRGWLTLEDLAQLDNAAFSKSL | 0.354 |
| HMSDPFSPTTTLKNRAKSVLSVDSFEDFKLFIKKMWQEKKEGVYQNPNVETWKDWDNISVKDAKILISLI | -0.327 |
| HMSDPHEELMSRIARDLSIPLTRVVAEMNTIISKEFGGHIRPEGAVVILAKRSGVEFSDLLPALRENILK | -0.852 |
| HMSDQIQQIAERIAGLRDIAGYSVEELARELGISAEEYKRYESGEVDIPIGFLYKLANKYNVELTAILT | -1.02 |
| HMSDRFLDQEGVALSTLRPSGTVVLDSGEHLDVVTRGEFIEQGERVKVIKAESTWYVVEQIN | -0.317 |
